In patent publication US20130189787A1 (OPX BIOTECHNOLOGIES ,INC., priority 2008, published 2013):

What was measured:
[1] = test system: gram negative and gram positive bacteria; settings: wide range of gram negative and gram positive bacteria; concentrations as low as; cited from earlier work
E. coli = settings: known to be toxic; cited from earlier work
E. coli strain BW25113 = settings: 20 g/L 3-HP, putrescine 0.1 g/L
Description: The control E. coli strain BW25113 and 22 of its derivatives, each derivative having a deletion of a respective one of 22 aldehyde dehydrogenases or related genes (predicted aldehyde dehydrogenases via homology, www.ecocyc.org) were cultured as described in methods in the Common Methods Section. […] These strains each contain a kanamycin marker in place of the deleted gene.
In addition, an Eppendorf external column heater is used and the data are collected using an SRI (Torrance, Calif.) analog-to-digital converter linked to a standard desk top computer. Data are analyzed using the SRI Peak Simple software. A Coregel 64H ion exclusion column (Transgenomic, Inc., San Jose, Calif.) is employed. The column resin is a sulfonated polystyrene divinyl benzene with a particle size of 10 μm and column dimensions are 300×7.8 mm The mobile phase consisted of sulfuric acid (Fisher Scientific, Pittsburgh, Pa. USA) diluted with deionized (18 MΩcm) water to a concentration of 0.02 N and vacuum filtered through a 0.2 μm nylon filter. The flow rate of the mobile phase is 0.6 mL/min. The UV detector is operated at a wavelength of 210 nm and the column is heated to 60° C.
The next day, 250 uL of the overnight cultures were inoculated into 25 mL of M9+kanamycin. […] All the intracellular and extracellular metabolites were analyzed by HPLC as described in the Common Methods Section, Subsection III.

[2] = Enzyme activity assays for dehydrogenase enzymes with 3-HP as a substrate (340 nm spectrophotometric); format: biochemical, E. coli; settings: 1 mM 3-HP, 1 mM cofactor, 1 hour at room temperature, change in absorption at 340 nm; clarified lysates or purified enzymes
Description: Samples of these enzymes were isolated either as clarified lysates or as purified enzymes as described in the method reported above. As these dehydrogenases use NAD+, NADH, NADP+, NADPH or all of these molecules as cofactors for their reactions depending on reaction direction, all enzymes where tested with their known cofactors. For enzymes where the specific cofactors have not been determined or maybe unclear, all possible cofactors were evaluated.
(§1) A spectrophotometric assay was used to evaluate enzyme activity. […] Replicates of reactions were carried out to compare reactions in the presence or absence or 3-HP, and with and without enzyme. Enzymatic activities were confirmed by comparing the change in the 340 nm absorption values after 1 hour incubations to reactions performed in buffer containing 1 mM cofactor as a baseline. […] Furthermore, activity of the purified aldB enzyme was confirmed with its natural substrate (1 mM […]) as in FIG. 9B.
(§2) Reactions were carried out using one of two reaction buffers. AldA, AldB, LacZ, and Usg reactions were performed in a buffer consisting of 100 mM potassium phosphate buffer pH 7.4 with 50 mM sodium chloride. Likewise, puuC reactions were performed in a buffer consisting of 200 mM sodium bicarbonate pH 9.2 with 10 mM dithiothreitol and 30 micromolar ferrous sulphate. Where stated, all cofactors were used at 1 mM in the final reaction buffer. […] After one hour incubations at room temperature, the samples were diluted 1 to 20 in water and measured with a Beckmann DU530 spectrometer set at 340 nm.

[3] = Enzyme activity assay of purified aldB with its natural substrate; format: biochemical, E. coli; settings: 1 mM acetate, FIG. 9B
Description: as §1, §2

## O=CCCO [3-HPA, 3-hydroxypropionaldehyde]
[1]
  concentration toxic to bacteria: ≥ 15 mM
E. coli
  toxicity to E. coli: toxic

## NCCCCN [putrescine]
E. coli strain BW25113; 20 hours, FIG. 7
  level of aldehyde in response to 3-HP: greater level
E. coli strain BW25113; puuC deletion strain, FIG. 8
  level of aldehyde in response to 3-HP in a strain lacking the puuC gene: elevated levels

B1: usg: E. coli aldehyde dehydrogenase not listed in Table 1 (SEQ ID NO: 121) (protein, listed as Escherichia coli)
chain: MSEGWNIAVLGATGAVGEALLETLAERQFPVGEIYALARNESAGEQLRFGGKTITVQDAAEFDWTQAQLAFFVAGKEATAAWVEEATNSGCLVIDSSGLFALEPDVPLVVPEVNPFVLTDYRNRNVIAVPDSLTSQLLAALKPLIDQGGLSRISVTSLISASAQGKKAVDALAGQSAKLLNGIPIDEEDFFGRQLAFNMLPLLPDSEGSVREERRIVDEVRKILQDEGLMISASVVQAPVFYGHAQMVNFEALRPLAAEEARDAFVQGEDIVLSEENEFPTQVGDASGTPHLSVGCVRNDYGMPEQVQFWSVADNVRFGGALMAVKIAEKLVQEYLY
[2]
  enzymatic activity using 3-HP as a substrate: showed activity

B2: aldB: E. coli acetaldehyde dehydrogenase, his-tagged, over-expressed (SEQ ID NO 024) (protein, listed as Escherichia coli)
chain: MTNNPPSAQIKPGEYGFPLKLKARYDNFIGGEWVAPADGEYYQNLTPVTGQLLCEVASSGKRDIDLALDAAHKVKDKWAHTSVQDRAAILFKIADRMEQNLELLATAETWDNGKPIRETSAADVPLAIDHFRYFASCIRAQEGGISEVDSETVAYHFHEPLGVVGQIIPWNFPLLMASWKMAPALAAGNCVVLKPARLTPLSVLLLMEIVGDLLPPGVVNVVNGAGGVIGEYLATSKRIAKVAFTGSTEVGQQIMQYATQNIIPVTLELGGKSPNIFFADVMDEEDAFFDKALEGFALFAFNQGEVCTCPSRALVQESIYERFMERAIRRVESIRSGNPLDSVTQMGAQVSHGQLETILNYIDIGKKEGADVLTGGRRKLLEGELKDGYYLEPTILFGQNNMRVFQEEIFGPVLAVTTFKTMEEALELANDTQYGLGAGVWSRNGNLAYKMGRGIQAGRVWTNCYHAYPAHAAFGGYKQSGIGRETHKMMLEHYQQTKCLLVSYSDKPLGLF
modifications: His tag
[2]
  enzymatic activity using 3-HP as a substrate: showed activity
[3]
  enzymatic activity with natural substrate: confirmed

B3: puuC: E. coli γ-glutamyl-γ-aminobutyraldehyde dehydrogenase, over-expressed (SEQ ID NO 038) (protein, listed as Escherichia coli)
chain: MNFHHLAYWQDKALSLAIENRLFINGEYTAAAENETFETVDPVTQAPLAKIARGKSVDIDRAMSAARGVFERGDWSLSSPAKRKAVLNKLADLMEAHAEELALLETLDTGKPIRHSLRDDIPGAARAIRWYAEAIDKVYGEVATTSSHELAMIVREPVGVIAAIVPWNFPLLLTCWKLGPALAAGNSVILKPSEKSPLSAIRLAGLAKEAGLPDGVLNVVTGFGHEAGQALSRHNDIDAIAFTGSTRTGKQLLKDAGDSNMKRVWLEAGGKSANIVFADCPDLQQAASATAAGIFYNQGQVCIAGTRLLLEESIADEFLALLKQQAQNWQPGHPLDPATTMGTLIDCAHADSVHSFIREGESKGQLLLDGRNAGLAAAIGPTIFVDVDPNASLSREEIFGPVLVVTRFTSEEQALQLANDSQYGLGAAVWTRDLSRAHRMSRRLKAGSVFVNNYNDGDMTVPFGGYKQSGNGRDKSLHALEKFTELKTIWISLEA
[2]
  enzymatic activity using 3-HP as a substrate: showed activity

B4: aldA: E. coli aldehyde dehydrogenase A, his-tagged, over-expressed (SEQ ID NO 023) (protein, listed as Escherichia coli)
chain: MSVPVQHPMYIDGQFVTWRGDAWIDVVNPATEAVISRIPDGQAEDARKAIDAAERAQPEWEALPAIERASWLRKISAGIRERASEISALIVEEGGKIQQLAEVEVAFTADYIDYMAEWARRYEGEIIQSDRPGENILLFKRALGVTTGILPWNFPFFLIARKMAPALLTGNTIVIKPSEFTPNNAIAFAKIVDEIGLPRGVFNLVLGRGETVGQELAGNPKVAMVSMTGSVSAGEKIMATAAKNITKVCLELGGKAPAIVMDDADLELAVKAIVDSRVINSGQVCNCAERVYVQKGIYDQFVNRLGEAMQAVQFGNPAERNDIAMGPLINAAALERVEQKVARAVEEGARVAFGGKAVEGKGYYYPPTLLLDVRQEMSIMHEETFGPVLPVVAFDTLEDAISMANDSDYGLTSSIYTQNLNVAMKAIKGLKFGETYINRENFEAMQGFHAGWRKSGIGGADGKHGLHEYLQTQVVYLQS
modifications: His tag
[2]
  enzymatic activity using 3-HP as a substrate: showed activity
